From patent publication US12371675B2, “Process and microorganism for synthesis of adipic acid from carboxylic acids” (THE GOVERNING COUNCIL OF THE UNIVERSITY OF TORONTO, priority 2015, dated 2025)

Key:
[1] = substrate: O=C(O)CCCCCO; assay: purified protein, by the assay type; conditions: other: ATP/NADPH dependent reduction; pH 7.5
[2] = substrate: O=CCCCCC=O; assay: AT kinetics, coupled with alanine and glutamate dehydrogenases; format: biochemical, Sinorhizobium meliloti; conditions: other: amino-donor Ala/Glu; pH 7.5
Protocol: 28 PLP-dependent aminotransferases (from the classes I, II and III) were cloned and overexpressed in E. coli (Table 6). Enzymes were purified using affinity chromatography on a Ni-NTA resin and were screened for […] activity towards adipaldehyde using alanine and glutamate as amino-donors. Enzyme activity was measured spectrophotometrically using a coupled reaction with the NADPH/NADH-dependent alanine and glutamate dehydrogenases in the presence of excess of ammonium chloride.
Reaction was monitored by following the decrease in absorbance of NAD(P)H to NAD(P)+ at 340 nm (ε340 nm=6,220/M·cm). Coupled enzymes can aminate pyruvate/ketoglutarate produced by ATs in excess of NH4Cl.

B1: Mycobacterium smegmatis carboxylate reductase MSMEG_2956, SEQ ID NO: 70 (Mycolicibacterium smegmatis MC2 155) (protein)
chain: MTIETREDRFNRRIDHLFETDPQFAAARPDEAISAAAADPELRLPAAVKQILAGYADRPALGKRAVEFVTDEEGRTTAKLLPRFDTITYRQLAGRIQAVTNAWHNHPVNAGDRVAILGFTSVDYTTIDIALLELGAVSVPLQTSAPVAQLQPIVAETEPKVIASSVDFLADAVALVESGPAPSRLVVFDYSHEVDDQREAFEAAKGKLAGTGVVVETITDALDRGRSLADAPLYVPDEADPLTLLIYTSGSTGTPKGAMYPESKTATMWQAGSKARWDETLGVMPSITLNFMPMSHVMGRGILCSTLASGGTAYFAARSDLSTFLEDLALVRPTQLNFVPRIWDMLFQEYQSRLDNRRAEGSEDRAEAAVLEEVRTQLLGGRFVSALTGSAPISAEMKSWVEDLLDMHLLEGYGSTEAGAVFIDGQIQRPPVIDYKLVDVPDLGYFATDRPYPRGELLVKSEQMFPGYYKRPEITAEMFDEDGYYRTGDIVAELGPDHLEYLDRRNNVLKLSQGEFVTVSKLEAVFGDSPLVRQIYVYGNSARSYLLAVVVPTEEALSRWDGDELKSRISDSLQDAARAAGLQSYEIPRDFLVETTPFTLENGLLTGIRKLARPKLKAHYGERLEQLYTDLAEGQANELRELRRNGADRPVVETVSRAAVALLGASVTDLRSDAHFTDLGGDSLSALSFSNLLHEIFDVDVPVGVIVSPATDLAGVAAYIEGELRGSKRPTYASVHGRDATEVRARDLALGKFIDAKTLSAAPGLPRSGTEIRTVLLTGATGFLGRYLALEWLERMDLVDGKVICLVRARSDDEARARLDATFDTGDATLLEHYRALAADHLEVIAGDKGEADLGLDHDTWQRLADTVDLIVDPAALVNHVLPYSQMFGPNALGTAELIRIALTTTIKPYVYVSTIGVGQGISPEAFVEDADIREISATRRVDDSYANGYGNSKWAGEVLLREAHDWCGLPVSVFRCDMILADTTYSGQLNLPDMFTRLMLSLVATGIAPGSFYELDADGNRQRAHYDGLPVEFIAEAISTIGSQVTDGFETFHVMNPYDDGIGLDEYVDWLIEAGYPVHRVDDYATWLSRFETALRALPERQRQASLLPLLHNYQQPSPPVCGAMAPTDRFRAAVQDAKIGPDKDIPHVTADVIVKYISNLQMLGLL
[1]
  Km: 66.15 ± 9.48 mM
  kcat: 2.32 ± 0.22 s⁻¹
  kcat/Km: 35.1 ± 3.29 M⁻¹ s⁻¹

B2: Sinorhizobium meliloti aminotransferase SM2011_c04388, SEQ ID NO: 58 (Sinorhizobium meliloti 1021) (protein)
chain: MNAHNKPNAPVLDSYWMPFTANRQFKAAPRLLAAAEGMHYTSVDGRTVLDGTAGLWCVNAGHGRRQIAAAVERQLSTMDFAPSFQMGHPIAFDFAERLAEIAPGPAGAKLDRVFFTGSGSESVDTALKMALAYQRSIGQGTRTRLIGRERGYHGVGFGGISVGGIVNNRRVFPQLPGSDHLRHTHDPAKNAFVKGQPEHGAELADDLERLVALHGAETIAACIVEPVAGSTGVLIPPKGYLERLRAICDKHGILLIFDEVITGFGRLGAAFATDYFGVTPDIVTTAKGLTNGAIPMGAVFASRKVHDALMHGPEGQIELFHGYTYSGHPAACAAGIATLDIYRDEGLMTRAAEIEGDWHEAMHSMKGLPHVIDIRTIGLIAGIELQSRDGAPGARAYDVFVDCFERGLLIRVTGDIIAFSPPLIAEKQHFGEIVSILADALKRVK
[2]
  Km: 8.58 ± 3.34 mM

B3: Sinorhizobium meliloti aminotransferase SM2011_b20423, SEQ ID NO: 60 (Sinorhizobium meliloti 1021) (protein)
chain: MLERSNELTAWDRDHFFHPSTHMGMHARGETPTRVIGGGEGVYITDISGKRSLDAFAGLYCVNVGYGRQKIADAIAEQAKNLAYYHAYVGHGTEASIRLSKMIIDRAPEGMSRVYFGLSGSDANETNIKLIWYYNNILGRPEKKKIISRWRGYHGSGVMTGSLTGLHLFHNAFDLPRAPILHTEAPYYFRRPDRSMSEEQFSQYCADKLEEMILAEGPDTVAAFIGEPILGTGGIVPPPKGYWEKIQAVLQKYDILLVADEVVTGFGRLGTMFGSDHYGIKPDLITIAKGLTSAYAPLSGTIVSDKLWQVLVKGSDELGAIGHGWTYSAHPICAAAGIANLELIDELGIVENAGSTGAYFRAELQKAVGDHRHVGEVRGDGLMAAIEFVEDRDDRAFFDPGRKVGPQVAAALLERGVIGRAMPQGDILGFAPPLCLTRDEADIVVKAAADTIQSVLGR
[2]
  Km: 2.64 ± 0.35 mM
  kcat: 0.28 ± 0.01 s⁻¹
  kcat/Km: (1.05 ± 0.06) × ×10^2 M^−1 · s^−1

B4: Sinorhizobium meliloti aminotransferase SM2011_b20379, SEQ ID NO: 59 (Sinorhizobium meliloti 1021) (protein)
chain: MNDRPNSLHALDKQSLVHPYTNLAVHQETGPHVITGGDGIYVVDDEGKRYIEGLAGLFCAGLGFSEQRLVEAATRQLKTMPFYHSFAHKSTEPGIRLAEKLLSIAPVPMSKVFFAGSGSEANDTAIKLIWYYNNALGRPEKKKIISRRKAYHGVTVATASLTGLPFNHRDFDLPIANILHTDCPHYWRFAETGETEEDFATRMANNLEAIILEEGPETIAAFFAEPVMVSGGVITPPKTYFEKVQAVLRKYDILLIADEVICGFGRTGNMFGSETYGLKPDMISCAKQLSAAYMPISALMINAKIADALVDQSRKIGTFSHGFTYGGHPVAAAVALEALTIYEEIDIVGHVRSVAPAFQDRVRKLGEHPLIGEARGVGLVAGLEFVKDKATRENFPPAWQVANQAGKFATARGVLTRGLGDMVSLCPAMIIDDEQIDDLMTRMGLALDDTLAWARAQGHVG
[2]
  Km: 0.32 ± 0.10 mM
  kcat: 0.26 ± 0.05 s⁻¹
  kcat/Km: (8.08 ± 1.52) × ×10^2 M^−1 · s^−1

B5: Mycobacterium smegmatis carboxylate reductase MSMEI_5586, SEQ ID NO: 35 (Mycolicibacterium smegmatis MC2 155) (protein)
chain: MHQLTVTGMNICEVQRLFPRMTSDVHDATDGVTETALDDEQSTRRIAELYATDPEFAAAAPLPAVVDAAHKPGLRLAEILQTLFTGYGDRPALGYRARELATDEGGRTVTRLLPRFDTLTYAQVWSRVQAVAAALRHNFAQPIYPGDAVATIGFASPDYLTLDLVCAYLGLVSVPLQHNAPVSRLAPILAEVEPRILTVSAEYLDLAVESVRDVNSVSQLVVFDHHPEVDDHRDALARAREQLAGKGIAVTTLDAIADEGAGLPAEPIYTADHDQRLAMILYTSGSTGAPKGAMYTEAMVARLWTMSFITGDPTPVINVNFMPLNHLGGRIPISTAVQNGGTSYFVPESDMSTLFEDLALVRPTELGLVPRVADMLYQHHLATVDRLVTQGADELTAEKQAGAELREQVLGGRVITGFVSTAPLAAEMRAFLDITLGAHIVDGYGLTETGAVTRDGVIVRPPVIDYKLIDVPELGYFSTDKPYPRGELLVRSQTLTPGYYKRPEVTASVFDRDGYYHTGDVMAETAPDHLVYVDRRNNVLKLAQGEFVAVANLEAVFSGAALVRQIFVYGNSERSFLLAVVVPTPEALEQYDPAALKAALADSLQRTARDAELQSYEVPADFIVETEPFSAANGLLSGVGKLLRPNLKDRYGQRLEQMYADIAATQANQLRELRRAAATQPVIDTLTQAAATILGTGSEVASDAHFTDLGGDSLSALTLSNLLSDFFGFEVPVGTIVNPATNLAQLAQHIEAQRTAGDRRPSFTTVHGADATEIRASELTLDKFIDAETLRAAPGLPKVTTEPRTVLLSGANGWLGRFLTLQWLERLAPVGGTLITIVRGRDDAAARARLTQAYDTDPELSRRFAELADRHLRVVAGDIGDPNLGLTPEIWHRLAAEVDLVVHPAALVNHVLPYRQLFGPNVVGTAEVIKLALTERIKPVTYLSTVSVAMGIPDFEEDGDIRTVSPVRPLDGGYANGYGNSKWAGEVLLREAHDLCGLPVATFRSDMILAHPRYRGQVNVPDMFTRLLLSLLITGVAPRSFYIGDGERPRAHYPGLTVDFVAEAVTTLGAQQREGYVSYDVMNPHDDGISLDVFVDWLIRAGHPIDRVDDYDDWVRRFETALTALPEKRRAQTVLPLLHAFRAPQAPLRGAPEPTEVFHAAVRTAKVGPGDIPHLDEALIDKYIRDLREFGLI
[1]
  Km: 16.2 ± 2.11 mM
  kcat: 1.2 ± 0.07 s⁻¹
  kcat/Km: 74.2 ± 4.05 M⁻¹ s⁻¹

B6: Mycobacterium smegmatis carboxylate reductase MSMEG_5739, SEQ ID NO: 37 (Mycolicibacterium smegmatis MC2 155) (protein)
chain: MTSDVHDATDGVTETALDDEQSTRRIAELYATDPEFAAAAPLPAVVDAAHKPGLRLAEILQTLFTGYGDRPALGYRARELATDEGGRTVTRLLPRFDTLTYAQVWSRVQAVAAALRHNFAQPIYPGDAVATIGFASPDYLTLDLVCAYLGLVSVPLQHNAPVSRLAPILAEVEPRILTVSAEYLDLAVESVRDVNSVSQLVVFDHHPEVDDHRDALARAREQLAGKGIAVTTLDAIADEGAGLPAEPIYTADHDQRLAMILYTSGSTGAPKGAMYTEAMVARLWTMSFITGDPTPVINVNFMPLNHLGGRIPISTAVQNGGTSYFVPESDMSTLFEDLALVRPTELGLVPRVADMLYQHHLATVDRLVTQGADELTAEKQAGAELREQVLGGRVITGFVSTAPLAAEMRAFLDITLGAHIVDGYGLTETGAVTRDGVIVRPPVIDYKLIDVPELGYFSTDKPYPRGELLVRSQTLTPGYYKRPEVTASVFDRDGYYHTGDVMAETAPDHLVYVDRRNNVLKLAQGEFVAVANLEAVFSGAALVRQIFVYGNSERSFLLAVVVPTPEALEQYDPAALKAALADSLQRTARDAELQSYEVPADFIVETEPFSAANGLLSGVGKLLRPNLKDRYGQRLEQMYADIAATQANQLRELRRAAATQPVIDTLTQAAATILGTGSEVASDAHFTDLGGDSLSALTLSNLLSDFFGFEVPVGTIVNPATNLAQLAQHIEAQRTAGDRRPSFTTVHGADATEIRASELTLDKFIDAETLRAAPGLPKVTTEPRTVLLSGANGWLGRFLTLQWLERLAPVGGTLITIVRGRDDAAARARLTQAYDTDPELSRRFAELADRHLRVVAGDIGDPNLGLTPEIWHRLAAEVDLVVHPAALVNHVLPYRQLFGPNVVGTAEVIKLALTERIKPVTYLSTVSVAMGIPDFEEDGDIRTVSPVRPLDGGYANGYGNSKWAGEVLLREAHDLCGLPVATFRSDMILAHPRYRGQVNVPDMFTRLLLSLLITGVAPRSFYIGDGERPRAHYPGLTVDFVAEAVTTLGAQQREGYVSYDVMNPHDDGISLDVFVDWLIRAGHPIDRVDDYDDWVRRFETALTALPEKRRAQTVLPLLHAFRAPQAPLRGAPEPTEVFHAAVRTAKVGPGDIPHLDEALIDKYIRDLREFGLI
[1]
  Km: 8.33 ± 0.73 mM
  kcat: 1.21 ± 0.04 s⁻¹
  kcat/Km: 145 ± 4.4 M⁻¹ s⁻¹
